In test [1] the target is soluble form of Fas ligand (mouse (endogenous in primary Balb/cJ bone marrow-derived osteoclast cultures)).
The target is the same in test [2]. The source holds these as a separate data set.

soluble form of Fas ligand (mouse (endogenous in primary Balb/cJ bone marrow-derived osteoclast cultures)), sequence (P41047 101-279): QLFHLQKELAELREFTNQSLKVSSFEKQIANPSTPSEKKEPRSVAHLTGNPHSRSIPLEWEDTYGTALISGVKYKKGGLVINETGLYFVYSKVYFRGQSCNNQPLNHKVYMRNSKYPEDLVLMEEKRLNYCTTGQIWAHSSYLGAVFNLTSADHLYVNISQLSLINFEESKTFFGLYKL

In test [1], “Osteoprotegerin (from UniProt O08712 22-401) (receptor)” had a percentage of apoptotic osteoclasts (TUNEL-derived method), 24 h with OPG at 0, 20, 40, 80 ng/mL (22.7%, 34.8%, 43.5%, 51.3%) of 51.3%. Also, the concentration of soluble FasL in the osteoclast culture medium by ELISA, 24 h with OPG at 0, 20, 40, 80 ng/mL (69.44, 54.51, 41.71, 4.59 pg/mL; falls with the dose) in test [2] was found to be 69.4 pg/mL.

For the origin of these results see publication PMC4646684.
